Assay results as given in US12281155.

Tests used:
[1] = target: T1, recombinant SARS-CoV-2 Spike RBD domain, Wuhan (SARS-CoV-2); experiment: ELISA on coated RBD; details: remark: other sources report otherwise
[2] = target: T1, recombinant SARS-CoV-2 Spike RBD …; experiment: competition ELISA, blocking of RBD binding to ACE2 ectodomain; details: remark: other sources report otherwise

B1: SPK002 antibody (parental version Cv2.3194 described in WO 2022/228827) (antibody, V domains shown)
VH: EVQLVESGGGLIQPGGSLRLSCAASGITVTSNYMSWVRQAPGKGLEWVSVIYPGGSTFYADSVKGRFTISRDNSKNTLYLQMNSLRAEDTAVYYCARDLVVYGMDVWGQGTTVTVS
VL: EIVLTQSPGTLSLSPGERATLSCRASQSVSSSYLAWYQQKPGQAPRLLIYGASSRATGIPGRFSGSGSGTDFTLTISRLEPEDFAIYYCQQGVTFGGGTKVEIK
Binding AUC [1]: 34
Blocking % [2]: 88%
